The experiment has as its target Human CD3 epsilon (CD3ε) of the T cell receptor complex on cells (human) (UniProt P07766). The experiment is described as follows: flow cytometry on Jurkat cells, 10 nM antibody. For orientation: Flow cytometry measures light scatter and fluorescence of single cells or particles in a stream.

Here are results for one substance from US20220411504A1.

Human CD3 epsilon (CD3ε) of the T cell receptor complex on cells (human), sequence (P07766 23-207 limits assumed, one chain of several): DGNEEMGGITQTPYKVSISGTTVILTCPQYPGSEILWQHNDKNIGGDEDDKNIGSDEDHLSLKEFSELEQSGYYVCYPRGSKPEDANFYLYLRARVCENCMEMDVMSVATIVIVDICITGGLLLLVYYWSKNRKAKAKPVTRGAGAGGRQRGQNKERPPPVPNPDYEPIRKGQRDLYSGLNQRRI

Turning to UCHT1 (antibody), the MFI (arbitrary units) stood at 89200.
